# System: CFTR W1282X
# Assay: CFTR W1282X rescue, western blot of B and C bands, HEK cells
# Format: cell-based, human
# Details: co-expression with CFTR W1282X cDNA in HEK cells
# Procedure: To assess is these novel tRNA could rescue CFTR channels harboring nonsense codons, they were co-expressed in mammalian HEK cells with a CFTR W1282X cDNA plasmid. The cellular preparations were analyzed by standard biochemical approaches via Western blot assessment of CFTR protein. […] Specifically, the “B” and “C” bands represent the full-length and fully mature, post-translationally proceeded CFTR protein at the cell surface, respectively. […] FIG. 9.
# For expression in mammalian cells, the cDNA for the coding region and 200 base-pair of the 3′ untranslated region (UTR) of human CFTR was ligated into pcDNA3.1(+) (Promega, USA) using the KpnI and XbaI restriction enzymes. The G542tga and W1282tga mutations were introduced using QuickChange XL II (Stratagene, USA). For expression in Xenopus laevis oocytes, the cDNA for the coding region and 140 base-pair of the 5′ and 244 base-pair 3′ UTR of human CFTR was ligated into pGEM-HE (Promega, USA). Bothe the G542tga and W1282tga mutations were introduced using QuickChange XL II. The cDNA encoding the E. coli histidinol dehydrogenase was codon optimized for Mus musculus and synthesized (BioBasic Inc, Canada) with a c-terminal 8×His-Strep-tag (“8×His” disclosed as SEQ ID NO: 647) for protein purification from mammalian cells. The synthesized cDNA was ligated into pcDNA3.1(+) using EcoRI and XhoI restriction sites. […]
molecule,measurement,value
"Glychr19.trna2: top performing glycine ACE-tRNA UGA, SEQ ID NO: 53 (nucleic acid, chemistry not given here) GCGUUGGUGGUAUAGUGGUUAGCAUAGCUGCCUUCAAAGCAGUUGACCCGGGUUCGAUUCCCGGCCAACGCA","rescue of CFTR protein, B and C bands",robust populations of ‘B’ and ‘C’ CFTR immunopositive

# Reference: patent US12559749B2, “Methods of rescuing stop codons via genetic reassignment with ACE-tRNA” (UNIVERSITY OF IOWA RESEARCH FOUNDATION, priority 2017, dated 2026)
